Each block holds one binder with its values, some of them ahead of it.
Key:
[1] = molecular target: importin β–IBB domain complex (UniProt Q14974 1-876; P52292 2-60); test: ELISA
[2] = molecular target: 6× his-S–tagged importin β (UniProt Q14974 1-876); test: ELISA
Chain of 6× his-S–tagged importin β (Q14974 whole entry): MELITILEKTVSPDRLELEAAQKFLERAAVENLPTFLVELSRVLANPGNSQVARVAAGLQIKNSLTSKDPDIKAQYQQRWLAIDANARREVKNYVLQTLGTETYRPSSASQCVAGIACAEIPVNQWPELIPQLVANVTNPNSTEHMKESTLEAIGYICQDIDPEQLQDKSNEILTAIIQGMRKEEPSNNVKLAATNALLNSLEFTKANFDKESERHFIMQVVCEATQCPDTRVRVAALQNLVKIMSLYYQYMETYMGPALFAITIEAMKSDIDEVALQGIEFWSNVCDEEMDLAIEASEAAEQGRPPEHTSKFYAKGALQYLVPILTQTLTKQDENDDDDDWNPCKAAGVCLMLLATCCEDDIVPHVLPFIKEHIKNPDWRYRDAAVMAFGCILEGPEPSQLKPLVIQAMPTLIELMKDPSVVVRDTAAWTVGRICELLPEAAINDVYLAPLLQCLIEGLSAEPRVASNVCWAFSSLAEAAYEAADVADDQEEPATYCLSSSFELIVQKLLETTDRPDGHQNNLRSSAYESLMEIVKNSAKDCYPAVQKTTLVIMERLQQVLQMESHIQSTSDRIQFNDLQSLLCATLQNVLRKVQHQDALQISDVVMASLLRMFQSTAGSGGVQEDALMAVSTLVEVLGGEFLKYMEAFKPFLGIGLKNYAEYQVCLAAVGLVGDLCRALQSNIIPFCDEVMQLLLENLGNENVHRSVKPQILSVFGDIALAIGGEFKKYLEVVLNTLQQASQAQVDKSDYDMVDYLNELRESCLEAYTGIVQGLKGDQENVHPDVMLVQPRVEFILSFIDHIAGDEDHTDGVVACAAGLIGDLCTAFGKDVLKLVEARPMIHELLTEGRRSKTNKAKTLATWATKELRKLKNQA

Chain of importin β–IBB domain complex (Q14974 whole entry, chain 1 of 2, other chains not shown, the tested form may be a part): as the sequence (Q14974 whole entry) above

Kd [1]: 0.108 ± 0.0085 µM
Kd [2]: 0.112 ± 0.0065 µM
B1: GST-tagged Nup54 (natural protein, UniProt P70582 1-510, looked up)
chain: MAFNFGAPSGTSGTSTATAAPAGGFGGFGTTTTTAGSAFSFSAPTNTGSTGLLGGTQNKGFGFGTGFGTSTGTGTGLGTGLGTGLGFGGFNTQQQQQQQQTSLGGLFSQPAQAPAQSNQLINTASALSAPTLLGDERDAILAKWNQLQAFWGTGKGYFNNNIPPVEFTQENPFCRFKAVGYSCMPNNKDEDGLVVLIFNKKETDIRSQQQQLVESLHKVLGGNQTLTVNVEGIKTLPDDQTEVVIYIVERSPNGTSRRVPATTLYAHFEQANIKTQLQQLGVTLSMTRTELSPAQIKQLLQNPPAGVDPIIWEQAKVDNPDSEKLIPVPMVGFKELLRRLKVQDQMTKQHQTRLDIISEDISELQKNQTTTMAKIAQYKRKLMDLSHRTLQVLIKQEIQRKSGYAIQAEEEQLRVQLDTIQGELNAPTQFKGRLNELMSQIRMQNHFGAVKSEEKYYIDADLLREIKQHLKQQQEGLSHLISIIKDDLEDIKLVEHGLNETIHSRGGVFS

Kd [1]: 0.105 ± 0.006 µM
Kd [2]: 0.1 ± 0.008 µM
B2: GST-tagged Nup62 (natural protein, UniProt P17955 1-525, looked up)
chain: MSGFNFGGTGAPAGGFTFGTAKTATTTPATGFSFSASGTGTGGFNFGTPSQPAATTPSTSLFSLATQTSTTQTPGFNFGTTPASGGTGFSLGISTPKLSLSSTAATPATANTGSFGLGSSTLTNAISGASTSSQGTAPTGFVFGSSTTSAPSTGTTGFSFTSGSASQPGASGFNIGSVGSLAQPTALSGSPFTPATLATTTAGATQPAAATPTAATTSAGSTLFASIAAAPASSSTTVLSLSAPATTAATPTAGTLGFSLKAPGAAPGASTTSTTTTTTTTTTTASTSSSTTTTGFALSLKPLVPAGPSSVAATALPASSTAVGTTTGPAMTYAQLESLINKWSLELEDQERHFLQQATQVNAWDRTLIENGEKITSLHREVEKVKLDQKRLDQELDFILSQQKELEDLLSPLEESVKEQSGTIYLQHADEEREKTYKLAENIDAQLKRMAQDLKDIIEHLNMAGGPADTSDPLQQICKILNAHMDSLQWVDQSSALLQRRVEEASRVCESRRKEQERSLRIAFD

Kd [1]: 0.107 ± 0.008 µM
Kd [2]: 0.101 ± 0.002 µM
B3: GST-tagged Nup58 (natural protein, UniProt P70581 1-585, looked up)
chain: MATGFSFGSGTLGSTTVAPGGTGTGSGFSFGASSTPSVGLNFGTLGSSATPASTSTSASGFGTGLFGSKPGTGFTLGGTSAGTTATTSASTTGFSLGFSKPAASATPFALPVTSTTASGLTLSSALTSAPAASTGFTLNNLGATPATTTAASTGLSLGGALAGLGGSLFQSGNTATSGLGQNALSLSLGTATPTSAASSEGLGGIDFSTSSDKKSDKTGTRPEDSKALKDENLPPVICQDVENLQKFVKEQKQVQEEISRMSSKAMLKVQEDIKALKQLLSLAASGLQRNTLNIDKLKLETAQELKNAEIALRTQKTPPGLQHENTAPADYFRVLVQQFEVQLQQYRQQIEELENHLATQANNSHITPQDLSMAMQKIYQTFVALAAQLQSIHENVKVLKEQYLSYRKMFLGDAGDVFEARRTEAKKWQNAPRVTTGPTPFSTMPNAAAVAMAATLTQQQQPATGPQPSLGVSFGTPFGSGIGTGLQSSGLGSSNLGGFGTSSGFGCGTTGASTFGFGTTDKPSGSLSAGFGSSSTSGFNFSNPGITASAGLTFGVSNPASAGFGTGGQLLQLKRPPAGNKRGKR

Kd [1]: 0.0094 ± 0.003 µM
Kd [2]: 0.009 ± 0.0025 µM
B4: 6× his–tagged COOH-terminal segment of human Nup153 comprising amino acids 609–1475 (domain or fragment, UniProt P49790 609-1475, looked up)
chain: LDILKSPGFASPKIDSVAAQPTATSPVVYTRPAISSFSSSGIGFGESLKAGSSWQCDTCLLQNKVTDNKCIACQAAKLSPRDTAKQTGIETPNKSGKTTLSASGTGFGDKFKPVIGTWDCDTCLVQNKPEAIKCVACETPKPGTCVKRALTLTVVSESAETMTASSSSCTVTTGTLGFGDKFKRPIGSWECSVCCVSNNAEDNKCVSCMSEKPGSSVPASSSSTVPVSLPSGGSLGLEKFKKPEGSWDCELCLVQNKADSTKCLACESAKPGTKSGFKGFDTSSSSSNSAASSSFKFGVSSSSSGPSQTLTSTGNFKFGDQGGFKIGVSSDSGSINPMSEGFKFSKPIGDFKFGVSSESKPEEVKKDSKNDNFKFGLSSGLSNPVSLTPFQFGVSNLGQEEKKEELPKSSSAGFSFGTGVINSTPAPANTIVTSENKSSFNLGTIETKSASVAPFTCKTSEAKKEEMPATKGGFSFGNVEPASLPSASVFVLGRTEEKQQEPVTSTSLVFGKKADNEEPKCQPVFSFGNSEQTKDENSSKSTFSFSMTKPSEKESEQPAKATFAFGAQTSTTADQGAAKPVFSFLNNSSSSSSTPATSAGGGIFGSSTSSSNPPVATFVFGQSSNPVSSSAFGNTAESSTSQSLLFSQDSKLATTSSTGTAVTPFVFGPGASSNNTTTSGFGFGATTTSSSAGSSFVFGTGPSAPSASPAFGANQTPTFGQSQGASQPNPPGFGSISSSTALFPTGSQPAPPTFGTVSSSSQPPVFGQQPSQSAFGSGTTPNSSSAFQFGSSTTNFNFTNNSPSGVFTFGANSSTPAASAQPSGSGGFPFNQSPAAFTVGSNGKNVFSSSGTSFSGRKIKTAVRRRK

Kd [1]: 0.22 ± 0.016 µM
Kd [2]: 0.225 ± 0.0144 µM
B5: Nup358-4 (amino acids 2500–3224) (domain or fragment, UniProt P49792 2500-3224, looked up)
chain: TSETTPKAVVSPPKFVFGSESVKSIFSSEKSKPFAFGNSSATGSLFGFSFNAPLKSNNSETSSVAQSGSESKVEPKKCELSKNSDIEQSSDSKVKNLFASFPTEESSINYTFKTPEKAKEKKKPEDSPSDDDVLIVYELTPTAEQKALATKLKLPPTFFCYKNRPDYVSEEEEDDEDFETAVKKLNGKLYLDGSEKCRPLEENTADNEKECIIVWEKKPTVEEKAKADTLKLPPTFFCGVCSDTDEDNGNGEDFQSELQKVQEAQKSQTEEITSTTDSVYTGGTEVMVPSFCKSEEPDSITKSISSPSVSSETMDKPVDLSTRKEIDTDSTSQGESKIVSFGFGSSTGLSFADLASSNSGDFAFGSKDKNFQWANTGAAVFGTQSVGTQSAGKVGEDEDGSDEEVVHNEDIHFEPIVSLPEVEVKSGEEDEEILFKERAKLYRWDRDVSQWKERGVGDIKILWHTMKNYYRILMRRDQVFKVCANHVITKTMELKPLNVSNNALVWTASDYADGEAKVEQLAVRFKTKEVADCFKKTFEECQQNLMKLQKGHVSLAAELSKETNPVVFFDVCADGEPLGRITMELFSNIVPRTAENFRALCTGEKGFGFKNSIFHRVIPDFVCQGGDITKHDGTGGQSIYGDKFEDENFDVKHTGPGLLSMANQGQNTNNSQFVITLKKAEHLDFKHVVFGFVKDGMDTVKKIESFGSPKGSVCRRITITECGQI
